{"source": "patent US20120316071A1", "about": "(published 2012)", "binders": {"B1": {"name": "Fab VH3-23_IGHD2-21*01>3_IGHJ6*01 H100E/S108P/Y113G (EPG) & V2-13_IGLJ2*01 (Fab, V domains shown)", "VH": "not shown", "VL": "SSELTQDPAVSVALGQTVRITCQGDSLRSYYASWYQQKPGQAPVLVIYGKNNRPSGIPDRFSGSSSGNTASLTITGAQAEDEADYYCNSRDSSGNHLVVFGGGTKLTVL", "notes": "Fab; CH1 (His and Flag tags) and lambda CL come from the expression vectors; also called H:EPG"}, "B2": {"name": "Fab VH1-46_IGHD6-6*01_IGHJ1*01 & L6_IGKJ1*01 (Fab, V domains shown)", "VH": "QVQLVQSGAEVKKPGASVKVSCKASGYTFTSYYMHWVRQAPGQGLEWMGIINPSGGSTSYAQKFQGRVTMTRDTSTSTVYMELSSLRSEDTAVYYCAREEYSSSSAEYFQHWGQGTLVTVSS", "VL": "not shown", "notes": "Germline Fab made in E. coli: VH in Plasmid A (CH1, His6 and Flag tags), kappa VL in Plasmid C (kappa CL); also called parental; wildtype"}, "B3": {"name": "Fab VH1-46_IGHD6-6*01_IGHJ1*01 S102A/S103P/S104F/H111F S84G & L6_IGKJ1*01 (Fab, V domains shown)", "VH": "B2 VH with S84G, S102A, S103P, S104F, H111F", "VL": "not shown", "notes": "Tested as Fab expressed in E. coli; also called APFF S84G"}, "B4": {"name": "Fab VH1-46_IGHD6-6*01_IGHJ1*01 S102A/S103P/S104F/H111F S84H & L6_IGKJ1*01 (Fab, V domains shown)", "VH": "B2 VH with S84H, S102A, S103P, S104F, H111F", "VL": "not shown", "notes": "Tested as Fab expressed in E. coli; also called APFF S84H"}, "B5": {"name": "Fab VH1-46_IGHD6-6*01_IGHJ1*01 S102A/S103P/S104F/H111F S84T & L6_IGKJ1*01 (Fab, V domains shown)", "VH": "B2 VH with S84T, S102A, S103P, S104F, H111F", "VL": "not shown", "notes": "Tested as Fab expressed in E. coli; also called APFF S84T"}, "B6": {"name": "Fab VH1-46_IGHD6-6*01_IGHJ1*01 S105A & L6_IGKJ1*01 (Fab, V domains shown)", "VH": "B2 VH with S105A", "VL": "not shown", "notes": "Heavy chain CDR3 alanine mutant of the parental Fab; Fab format as the parent (CH1 with His6/Flag tags, kappa CL)"}, "B7": {"name": "Fab VH1-46_IGHD6-6*01_IGHJ1*01 S102A/S103P/S104F/H111F S84Q & L6_IGKJ1*01 (Fab, V domains shown)", "VH": "B2 VH with S84Q, S102A, S103P, S104F, H111F", "VL": "not shown", "notes": "Tested as Fab expressed in E. coli; also called APFF S84Q"}, "B8": {"name": "Fab VH1-46_IGHD6-6*01_IGHJ1*01 S102A/S103P/S104F/H111F S84N & L6_IGKJ1*01 (Fab, V domains shown)", "VH": "B2 VH with S84N, S102A, S103P, S104F, H111F", "VL": "not shown", "notes": "Tested as Fab expressed in E. coli; also called APFF S84N"}, "B9": {"name": "Fab VH1-46_IGHD6-6*01_IGHJ1*01 S102A/S103P/S104F/H111F S84K & L6_IGKJ1*01 (Fab, V domains shown)", "VH": "B2 VH with S84K, S102A, S103P, S104F, H111F", "VL": "not shown", "notes": "Tested as Fab expressed in E. coli; also called APFF S84K"}, "B10": {"name": "Fab VH1-46_IGHD6-6*01_IGHJ1*01 S102A/S103P/S104F/H111F S84R & L6_IGKJ1*01 (Fab, V domains shown)", "VH": "B2 VH with S84R, S102A, S103P, S104F, H111F", "VL": "not shown", "notes": "Tested as Fab expressed in E. coli; also called APFF S84R"}, "B11": {"name": "Fab VH5-51_IGHD5-18*01>3_IGHJ4*01 G100K/G104T (H:KT) & V3-4_IGLJ1*01 (Fab, V domains shown)", "VH": "EVQLVQSGAEVKKPGESLKISCKGSGYSFTSYWIGWVRQMPGKGLEWMGIIYPGDSDTRYSPSFQGQVTISADKSISTAYLQWSSLKASDTAMYYCARRKYSYTYDYFDYWGQGTLVTVSS", "VL": "QTVVTQEPSFSVSPGGTVTLTCGLSSGSVSTSYYPSWYQQTPGQAPRTLIYSTNTRSSGVPDRFSGSILGNKAALTITGAQADDESDYYCVLYMGSGISYVFGTGTKVTVL", "notes": "Fab expressed in E. coli; Plasmid A adds CH1 with His6 and Flag tags to the heavy chain; Plasmid E adds lambda CL to the light chain; also called H:KT & L:wt; KT double mutant"}, "B12": {"name": "Fab VH5-51_IGHD5-18*01>3_IGHJ4*01 G100K/G104T (H:KT) & V3-4_IGLJ1*01 (wildtype light chain) (Fab, V domains shown)", "VH": "B11 VH", "VL": "B11 VL", "notes": "Fab made in E. coli; VH was cloned into Plasmid A (CH1, His6 and Flag tags) and lambda VL into Plasmid E (lambda CL); also called H:KT & L:wt; KT double mutant"}}, "key": {"[1]": {"target": "T1, rHuman EGF R/Fc Chimera, CF (R&D Systems Cat#344-ER) (human, UniProt P00533 25-645)", "T1 construct": "Bought recombinant protein; also called epidermal growth factor receptor; Fc part of the bought chimera not given", "test": "ECL multispot (MSD), 20 nM Fab;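 note: purified Fab binding to antigens on multispot plates, read by electrochemiluminescence with a TAG-labelled detection antibody, 1 h Fab incubation at 20 °C, signal expressed relative to each well's blank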"}, "[2]": {"target": "T2, rHuman CD44/Fc Chimera, CF (R&D Systems Cat#3660-CD) (human, UniProt P16070 21-220)", "T2 construct": "Bought recombinant protein; Fc part of the bought chimera not given", "test": "ECL multispot (MSD), 20 nM Fab"}, "[3]": {"target": "T3, rHuman IGF-1 sR, (IGF-1 sR), CF (R&D Systems Cat#391-GR) (human, UniProt P08069 31-932)", "T3 construct": "Bought recombinant soluble receptor; also called insulin-like growth factor-1 soluble receptor", "test": "ECL multispot (MSD), 20 nM Fab"}, "[4]": {"target": "T4, rHuman ErbB2/Fc Chimera, CF (R&D Systems Cat#1129-ER) (human, UniProt P04626 23-652)", "T4 construct": "Bought recombinant protein; also called human epidermal growth factor 2 receptor; Fc part of the bought chimera not given", "test": "ECL multispot (MSD), 20 nM Fab"}, "[5]": {"target": "T5, Recombinant Human DLL4 (R&D Systems Cat#1506-D4/CF) (human, UniProt Q9NR61 27-529)", "T5 construct": "Bought recombinant protein; also called rHuman DLL4; delta-like protein 4", "test": "surface plasmon resonance, Fab against recombinant human DLL4; standard deviation in parentheses"}, "[6]": {"target": "T5, Recombinant Human DLL4 (R&D Systems …)", "test": "96-well plate ECL (MSD) assay, DLL4 coated on plate, Fab at 0.04 µM; ECL signal on DLL4 over signal on blank well"}, "[7]": {"target": "T6, Recombinant Human DLL4 (delta-like protein 4) (human, UniProt Q9NR61 27-524)", "T6 construct": "Bought recombinant protein (R&D Systems Cat#1506-D4/CF); also called rHuman DLL4; Delta-like 4", "test": "ECL (MSD) multispot binding assay, immobilized DLL4, 10 nM Fab, signal over blank"}, "[8]": {"target": "T6, Recombinant Human DLL4 (delta-like …)", "test": "ELISA on plate-coated DLL4, absorbance at 450 nm, signal minus noise"}, "[9]": {"target": "T7, Recombinant Human DLL4 (R&D Systems Cat#1506-D4/CF) (human, UniProt Q9NR61 27-524)", "T7 construct": "Bought recombinant protein; also called delta-like protein 4; Delta-like 4", "test": "ELISA, DLL4 coated on plate, Fab at 0.74 nM"}, "[10]": {"target": "T7, Recombinant Human DLL4 (R&D Systems …)", "test": "ELISA, DLL4 coated on plate, Fab at 20 nM"}, "[11]": {"target": "T7, Recombinant Human DLL4 (R&D Systems …)", "test": "ELISA, DLL4 coated on plate, Fab at 6.67 nM"}, "[12]": {"target": "T7, Recombinant Human DLL4 (R&D Systems …)", "test": "ECL (Meso Scale Discovery) multispot binding assay, DLL4 immobilised, Fab at 100 nM"}, "[13]": {"target": "T7, Recombinant Human DLL4 (R&D Systems …)", "test": "ELISA, DLL4 coated on plate, Fab at 2.22 nM"}, "[14]": {"target": "T8, Recombinant Human DLL4 (delta-like protein 4) (human, UniProt Q9NR61 27-524)", "T8 construct": "also called rHuman DLL4; Delta-like 4", "test": "ECL (MSD) multispot binding assay, Fab on immobilised recombinant human DLL4"}}, "note": "Positions count from the first letter of the chain named. Names and notes keep the numbering of the source.", "data": [{"binder": "B1", "values": [{"measurement": "ECL signal ratio (column head gives no unit)", "setting": "[1]", "result": 8.4}, {"measurement": "ECL signal ratio (column head gives no unit)", "setting": "[2]", "result": 1.7}, {"measurement": "ECL signal ratio (column head gives no unit)", "setting": "[3]", "result": 1.7}, {"measurement": "ECL signal ratio (column head gives no unit)", "setting": "[4]", "result": 11.7}]}, {"binder": "B2", "values": [{"measurement": "Kd", "setting": "[5]", "result": 730, "unit": "nM"}, {"measurement": "koff", "setting": "[5]", "result": 0.101, "unit": "s⁻¹"}, {"measurement": "kon", "setting": "[5]", "result": 163000, "unit": "M⁻¹ s⁻¹"}, {"measurement": "Signal/Noise", "setting": "[6]", "result": 3.1}]}, {"binder": "B3", "values": [{"measurement": "Signal/Blank [10 nM Fab]", "setting": "[7]", "result": 346}, {"measurement": "ELISA (Signal-Noise)", "setting": "[8]", "result": 0.53}]}, {"binder": "B4", "values": [{"measurement": "Signal/Blank [10 nM Fab]", "setting": "[7]", "result": 457}, {"measurement": "ELISA (Signal-Noise)", "setting": "[8]", "result": 0.41}]}, {"binder": "B5", "values": [{"measurement": "Signal/Blank [10 nM Fab]", "setting": "[7]", "result": 1080}, {"measurement": "ELISA (Signal-Noise)", "setting": "[8]", "result": 0.4}]}, {"binder": "B6", "values": [{"measurement": "Signal/Noise", "setting": "[6]", "result": 0.8}]}, {"binder": "B7", "values": [{"measurement": "Signal/Blank [10 nM Fab]", "setting": "[7]", "result": 413}, {"measurement": "ELISA (Signal-Noise)", "setting": "[8]", "result": 0.39}]}, {"binder": "B8", "values": [{"measurement": "Signal/Blank [10 nM Fab]", "setting": "[7]", "result": 497}, {"measurement": "ELISA (Signal-Noise)", "setting": "[8]", "result": 0.47}]}, {"binder": "B9", "values": [{"measurement": "Signal/Blank [10 nM Fab]", "setting": "[7]", "result": 448}, {"measurement": "ELISA (Signal-Noise)", "setting": "[8]", "result": 0.29}]}, {"binder": "B10", "values": [{"measurement": "Signal/Blank [10 nM Fab]", "setting": "[7]", "result": 433}, {"measurement": "ELISA (Signal-Noise)", "setting": "[8]", "result": 0.26}]}, {"binder": "B11", "values": [{"measurement": "ELISA signal", "setting": "[9]", "result": 0.019}, {"measurement": "ELISA signal", "setting": "[10]", "result": 0.018}, {"measurement": "ELISA signal", "setting": "[11]", "result": 0.042}, {"measurement": "ECL signal", "setting": "[12]", "result": 9360}, {"measurement": "ELISA signal", "setting": "[13]", "result": 0.014}]}, {"binder": "B12", "values": [{"measurement": "ECL signal", "setting": "[14]", "result": 9360}]}]}
